Laboratory results from US20060252697A1 (ANTYRA, published 2006).
Where no end group is shown, it is not given here.

What was measured:
[1] = molecular target: rat growth hormone binding protein (rGHBP) (rat) (UniProt P16310); experiment: TRFD, ED50 of specific binding of biotinylated ligand to rGHBP-coated wells
[2] = molecular target: rat growth hormone binding protein (rGHBP) (rat) (UniProt P16310); experiment: phage ELISA competition on rGHBP (100 ng/well); blocked: H5 phage
[3] = molecular target: rat growth hormone binding protein (rGHBP) (rat) (UniProt P16310); experiment: TRFD competition on rGHBP-coated wells, vs. bGH
[4] = molecular target: rat growth hormone binding protein (rGHBP) (rat) (UniProt P16310); experiment: TRFD competition on rGHBP-coated wells, vs. bP#447 (SEQ ID NO: 11)
[5] = molecular target: rat growth hormone binding protein (rGHBP) (rat) (UniProt P16310); experiment: TRFD competition on rGHBP-coated wells, vs. bP#418 (SEQ ID NO: 12)
[6] = molecular target: T1, rat growth hormone binding protein (rGHBP) (rat, UniProt P16310 19-265); experiment: phage ELISA competition on rGHBP (100 ng/well); synthetic H5 peptide against H5 phage
T1 construct: extracellular domain; also called rat GHBP; soluble rGHBP
T1 sequence (looked up): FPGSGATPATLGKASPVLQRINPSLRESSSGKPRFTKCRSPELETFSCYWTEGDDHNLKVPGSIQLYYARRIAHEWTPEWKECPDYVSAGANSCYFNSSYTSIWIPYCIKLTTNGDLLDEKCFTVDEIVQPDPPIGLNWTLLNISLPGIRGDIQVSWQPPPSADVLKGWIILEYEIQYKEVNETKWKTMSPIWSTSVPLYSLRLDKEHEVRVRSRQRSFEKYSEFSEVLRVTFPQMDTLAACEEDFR
Procedure: Wells were coated with rGHBP (100 ng/well) and blocked as described. […] Phage was detected with HRP-anti M13 phage antibody and reported at OD₄₀₅ as described.

[7] = molecular target: T1, rat growth hormone binding protein …; experiment: BIAcore, bPeptide binding to rGHBP, appKD 2
[8] = molecular target: T1, rat growth hormone binding protein …; experiment: BIAcore, bPeptide binding to rGHBP, appKD 1
[9] = molecular target: T1, rat growth hormone binding protein …; experiment: phage ELISA competition on rGHBP (100 ng/well); synthetic peptide against H5 phage
Procedure: Wells were coated with rGHBP (100 ng/well) and blocked as described. […] The peptides included two lysine residues added to the C-terminus of the sequence shown. Phage binding was detected with HRP-anti M13 phage antibody. Number and sequence of competing peptides are detailed on the right of figure. Control binding=binding in absence of peptide.

[10] = molecular target: T1, rat growth hormone binding protein …; experiment: phage ELISA, rGHBP 100 ng/well
Procedure: Alanine replacement for single or multiple amino acids is represented by “a” and for cysteine by “X”. FIG. 4A illustrates the binding of wild-type (WT) and mutant phage on wells coated with milk (2%), FcMAb (100 ng/well), rGHBP (100 ng/well), or MAb specific for the E-tag epitope (100 ng/well). FIG. 4B illustrates the ratio of mutant phage binding to rGHBP versus anti-E-tag MAb coated wells.
For this analysis, phage were input at 10¹⁰/well. Wild type (WT) and mutant phage were tested on wells coated with milk (2%), FcMAb (100 ng/well), rGHBP (100 ng/well), or MAb specific for the E-tag epitope (100 ng/well) (FIG. 4A). Detection with HRP-anti M13 phage antibody was done as described. In FIG. 4, alanine replacement for single or multiple amino acid is represented by “a” and for cysteine by “X”.

[11] = molecular target: T1, rat growth hormone binding protein …; experiment: TRFD, ED50 of specific binding of biotinylated ligand to rGHBP-coated wells
Procedure: Wells were coated with rGHBP (100 ng/well) overnight as described. ED₅₀ and IC₅₀ were calculated from analysis of specific bLigand binding to rGHBP. Competitors were added 1 hr prior to addition of bLigand as described.
(§1) rGHBP (50-200 μg/ml in 50 mM NaHCO₃) was coated onto low-fluorescence MaxiSorp (Nunc) plates (100 μl/well) overnight at 4° C. The plates were blocked with PBS containing 2% non-fat milk and 0.05% BSA for 2 hr at room temperature, followed by three PBS washes. […] Ten microliters of the 10× concentrated material was added to the plates and incubated at room temperature for 1 hr to overnight.
(§2) The plates were then washed five times with Tris-buffered saline (pH 7.5) containing 0.1% Tween-20 (TTBS). To each well, 100 μl of europium-labeled streptavidin in DELFIA assay buffer (100 mM Tris-HCl, pH 7.8; 150 mM NaCl; 0.5% BSA; 0.05% bovine Ig; 0.05% NaN3; 0.01% Tween-20) was added and incubated for 1.5 hr at room temperature. The plates were then washed five times with TTBS and tapped dry. Subsequently, 100 μl of DELFIA enhancement solution (100 mM acetone-potassium hydrogen phthalate, pH 3.2; 15 mM 2-naphtyltrifluoroacetate; 50 mM tri(n-octyl)-phosphine oxide; 0.1% Triton X-100) was added to each well, and the plates were shaken for 10 min at room temperature.

[12] = molecular target: T1, rat growth hormone binding protein …; experiment: TRFD
[13] = molecular target: T1, rat growth hormone binding protein …; experiment: TRFD, ED50 of specific binding to rGHBP-coated wells
Procedure: as §1, §2

[14] = molecular target: humanized rat growth hormone binding protein (‘hu’GHBP) (rat (humanized by one substitution)) (UniProt P16310); experiment: phage ELISA on ‘hu’GHBP-coated wells, +BSA (1 µM)
[15] = molecular target: humanized rat growth hormone binding protein (‘hu’GHBP) (rat (humanized by one substitution)) (UniProt P16310); experiment: phage ELISA on ‘hu’GHBP-coated wells, competitor human GH (+hGH, 1 µM)
[16] = molecular target: humanized rat growth hormone binding protein (‘hu’GHBP) (rat (humanized by one substitution)) (UniProt P16310); experiment: phage ELISA on ‘hu’GHBP-coated wells, no competitor

biotinylated growth hormone (bGH) (ligand)
EC50 [1]: 20 nM

growth hormone (GH), species not stated (ligand)
IC50 (read off the curve) [2]: 5 nM
IC50 [3]: 5 nM
IC50 [4]: 0.4 nM
IC50 [5]: 2 nM

B1: GHBP-H5 peptide (H5WT) (peptide)
peptide: DYKDLCQSLGVTYPGWLAGWCA
modifications: cysteine pairing not given here; also: biotinylated in some formats, position not given here
notes: also called H5 phage
IC50 (read off the curve) [6]: ~1000 nM
Kd [7]: 3500 nM
Kd [8]: 1300 nM
IC50 (read off the curve) [9]: ~1000 nM

DYKDLAQSLGVTYPGWLAGWAA (H5 phage mutant) [X---X (both C crossed out)]
binding result [10]: no binding (tested: 10^10 phage/well)

B2: peptide #418 (peptide)
peptide: DYKDLCQSWQVTWPGWLAGWCA
modifications: cysteine pairing not given here; also: biotinylated in bP form, position not given here
notes: H5 mutant from the secondary library (Y9 to W, L5 to W, G6 to E), synthetic
Kd [7]: 670 nM
EC50 [11]: 800 nM
fold better binding than H5WT or bP#445 [12]: 10 fold
Kd [8]: 150 nM
IC50 (read off the curve) [9]: ~100 nM

DYKDLAQSLGVTYPGWLAGWCA (H5 phage mutant) [X---C (first C crossed out)]
binding result [10]: no binding (tested: 10^10 phage/well)

DYKDLCQRLGVTWPGWLAGWCA (cysteine pairing not given here; also: biotinylated, position not given here, H5 mutant, synthetic) [peptide #443]
Kd [7]: > 10000 nM
Kd [8]: 600 nM
IC50 (read off the curve) [9]: ~400 nM

B3: peptide #447 (peptide)
peptide: DYKDLCQRLGVGWPGWLSGWCA
modifications: cysteine pairing not given here; also: biotinylated in bP form, position not given here
notes: H5 mutant from the secondary library, synthetic
EC50 [13]: 700 nM
Kd [7]: 2900 nM
EC50 [11]: 600 nM
fold better binding than H5WT or bP#445 [12]: 10 fold
Kd [8]: 160 nM
IC50 (read off the curve) [9]: ~90 nM

B4: peptide #445 (peptide)
peptide: DYKDLCQRLGVGWPGWLAGWCA
modifications: cysteine pairing not given here; also: biotinylated in bP form, position not given here
ELISA signal (unit not given) [14]: 0.11
ELISA signal (unit not given) [15]: 0.12
ELISA signal (unit not given) [16]: 0.14

DYKDALLHRSRCVRWGKWVCCLPPVGVGGAQANQGMSVQRFRHC [clone HH peptide]
ELISA signal (unit not given) [14]: 0.37
ELISA signal (unit not given) [15]: 0.35
ELISA signal (unit not given) [16]: 0.37
